Data from publication PMC10647171.

B1: FeoB C-terminal peptide P1 (Ac-CCAASTTGDCH, FeoB 763-773) (Escherichia coli K12) (peptide)
chain: CCAASTTGDCH
B2: FeoB C-terminal peptide P2 (Ac-RRARSRVDIELLATRKSVSSCCAASTTGDCH, FeoB 743-773) (Escherichia coli K12) (peptide)
chain: RRARSRVDIELLATRKSVSSCCAASTTGDCH

Legend:
Assay in all cases: potentiometry
[1] = target: Asp29 (UniProt position 771, ASTTGDCH---); conditions: 298 K; 0.1 M NaClO4; none (4 mM HClO4, 0.1 M NaClO4); free peptide, no metal, thiols reduced (argon atmosphere)
[2] = target: Cterm31 (UniProt position 773, TTGDCH-----); conditions: 298 K; 0.1 M NaClO4; none (4 mM HClO4, 0.1 M NaClO4); free peptide, no metal, thiols reduced (argon atmosphere)
[3] = target: Cys30 (UniProt position 772, STTGDCH----); conditions: 298 K; 0.1 M NaClO4; none (4 mM HClO4, 0.1 M NaClO4); Zn(II)-bound mononuclear 1:1 complex
[4] = target: His31 (UniProt position 773, TTGDCH-----); conditions: 298 K, 0.1 M NaClO4, none (4 mM HClO4, 0.1 M NaClO4)
[5] = target: Cterm31 (position 31, TTGDCH-----); conditions: 298 K; 0.1 M NaClO4; none (4 mM HClO4, 0.1 M NaClO4); free peptide, no metal, thiols reduced (argon atmosphere)
[6] = target: Cys30 (position 30, STTGDCH----); conditions: 298 K; 0.1 M NaClO4; none (4 mM HClO4, 0.1 M NaClO4); Zn(II)-bound mononuclear 1:1 complex
Glu10 (position 10, …) = conditions: 298 K, 0.1 M NaClO4, none (4 mM HClO4, 0.1 M NaClO4)
[7] = target: His31 (position 31, TTGDCH-----); conditions: 298 K, 0.1 M NaClO4, none (4 mM HClO4, 0.1 M NaClO4)
[8] = Fe(II)-bound mononuclear 1:1 complex, anaerobic
[9] = Mn(II)-bound mononuclear 1:1 complex
[10] = Zn(II)-bound mononuclear 1:1 complex
[11] = free peptide, no metal, thiols reduced (argon atmosphere)

Protein	pKa [1]	pKa [2]	pKa [3]	pKa [4, 8]	pKa [4, 9]	pKa [4, 10]	pKa [4, 11]	pKa [5]	pKa [6]	pKa (Glu10 (position 10, …); [8])	pKa (Glu10 (position 10, …); [9])	pKa (Glu10 (position 10, …); [11])	pKa [7, 8]	pKa [7, 9]	pKa [7, 10]	pKa [7, 11]
B1	4.19	3.37	7.27	4.68	6.46	5.91	6.96									
B2								2.15	7.75	4.13	3.64	4.38	4.90	5.20	5.74	6.73
